The target in assay [1] is T1, human PSMA on PSMA-expressing cells (human, UniProt Q04609 1-750).
T1 construct: Cell line is named under assay or readout in each row; also called B16F10.9/hPSMA; B16F10.9/PSMA
Briefly: FACS on 22RV1 cells. The method, then:
Briefly, 2×10⁵ cells/well of human CD3-expressing Jurkat, cynomolgus T, or human PSMA-specific expressing cells were incubated with a serial dilution of bispecific antibodies for 30 min at 4° C. After incubation, cells were washed and a goat F(ab′)₂ anti-human Fcγ PE labeled secondary (Jackson Immunolabs) was added to the cells for an additional 30 min. Next, cells were washed, re-suspended in cold PBS+1% BSA and analyzed via flow cytometry on a BD FACS Canto II.
For FACS analysis, cells were gated by forward scatter height vs. forward scatter area for single events selection, followed by side and forward scatters. The EC₅₀ for cell binding titration was determined using Prism software. Values were calculated using 4-parameter non-linear regression analysis.

Assay [2] has as its target T2, human CD3 on CD3-expressing cells (Jurkat, human T cells) (human, UniProt P07766 23-207; P04234 22-171).
T2 construct: On cells CD3 stands within the T cell receptor complex (also gamma and zeta chains); also called human CD3 expressing Jurkat cells
In words: FACS on Jurkat cells. The gist of the method:
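Jurkat (human CD3), cynomolgus T or PSMA-expressing cells (2×10⁵/well) incubated 30 min at 4° C with serially diluted bispecific antibodies, then 30 min with PE anti-human Fcγ F(ab′)₂. Single-cell gated flow cytometry; EC₅₀ from 4-parameter non-linear regression.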

T2 sequence (P07766 23-207 limits assumed, chain 1 of 2): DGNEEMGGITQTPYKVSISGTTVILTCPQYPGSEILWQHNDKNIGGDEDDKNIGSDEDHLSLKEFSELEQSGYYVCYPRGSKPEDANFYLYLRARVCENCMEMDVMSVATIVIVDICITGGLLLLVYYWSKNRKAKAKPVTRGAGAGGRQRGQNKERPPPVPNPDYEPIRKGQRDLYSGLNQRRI
T2 sequence (P04234 22-171 limits assumed, chain 2 of 2): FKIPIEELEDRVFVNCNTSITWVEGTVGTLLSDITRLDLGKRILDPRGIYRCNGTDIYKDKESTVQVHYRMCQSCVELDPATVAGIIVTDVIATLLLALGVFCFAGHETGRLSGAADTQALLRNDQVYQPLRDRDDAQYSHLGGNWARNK
T1 sequence (Q04609 whole entry): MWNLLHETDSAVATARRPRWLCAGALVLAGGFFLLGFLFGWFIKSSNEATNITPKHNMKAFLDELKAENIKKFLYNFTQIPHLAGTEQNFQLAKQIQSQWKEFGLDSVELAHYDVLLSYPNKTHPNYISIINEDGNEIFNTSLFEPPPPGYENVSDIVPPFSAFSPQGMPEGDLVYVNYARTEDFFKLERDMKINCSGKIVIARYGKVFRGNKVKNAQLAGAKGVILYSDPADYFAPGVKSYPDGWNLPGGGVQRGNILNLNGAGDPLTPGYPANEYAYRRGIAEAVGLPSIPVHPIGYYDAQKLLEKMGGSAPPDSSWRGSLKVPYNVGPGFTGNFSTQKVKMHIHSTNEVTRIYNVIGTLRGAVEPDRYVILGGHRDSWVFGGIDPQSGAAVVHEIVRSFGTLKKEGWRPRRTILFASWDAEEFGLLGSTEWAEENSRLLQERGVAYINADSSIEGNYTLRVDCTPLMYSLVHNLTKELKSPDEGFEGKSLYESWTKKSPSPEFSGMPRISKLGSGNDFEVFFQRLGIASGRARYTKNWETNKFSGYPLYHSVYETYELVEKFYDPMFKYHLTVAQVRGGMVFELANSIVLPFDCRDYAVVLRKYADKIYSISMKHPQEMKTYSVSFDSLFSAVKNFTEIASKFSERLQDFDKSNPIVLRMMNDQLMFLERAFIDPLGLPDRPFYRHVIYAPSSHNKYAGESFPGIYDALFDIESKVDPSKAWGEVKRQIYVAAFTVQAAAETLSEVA

B1: BSPSMA/CD3-001 (bispecific antibody, IgG4, V domains shown)
VH 1: QVQLVESGGGVVQPGRSLRLSCAASGFTFITYGMHWVRQAPGKGLEWVAIIYYDESNKYYADSVKGRFTISRDISKNTLYLQMNGLRAEDTAVYYCARAPRVAVEEDYSYYYGMDVWGQGTTVTVSS
VH 2: EVQLVESGGGLVQPGRSLRLSCVASGFTFADFTMHWVRQAPGKGLEWVSGISWNSNSIDYADSVKGRFTISRDNAKKSLFLQMSSLRAEDTALYYCVKDRSGYSRFYYGMDVWGQGTTVTVSS
VL: EIVMTQSPATLSVSPGERAILSCRASQNINSNLAWYQQKPGQAPRLLIYGASTRATGVPARFSGSGSGTEFTLTIRSLQSEDFAVYYCQQYYNWPITFGHGTRLEIK
notes: modified (chimeric) IgG4 Fc domain as in US20140243504A1; also called PSMA-VH-3465 x CD3-VH-A, CD3-VL-A
For orientation: EC50 means the concentration at which the effect is half-maximal. Low readings indicate greater potency, high ones weaker potency. Turning to B1, the 50% effective concentration (EC50) in assay [1] was 78.5 nM; in assay [2], 39.1 nM.

(Values after patent US20190127480A1 (Regeneron, published 2019).)
